From paper PMC9654404, “Functional Characterization and Screening of Promiscuous Kinases and Isopentenyl Phosphate Kinases for the Synthesis of DMAPP via a One-Pot Enzymatic Cascade” (International Journal of Molecular Sciences, 2022)

Experiments:
purified protein [1] = substrate: CC(C)=CCOP(=O)(O)O; experiment: purified protein; settings: ATP co-substrate, 2 mM MgCl2, 50 mM buffer, DMAP made enzymatically with SfPK, apparent Km
[2] = substrate: CC(C)=CCO; experiment: ADP formation, ADP colorimetric/fluorometric assay kit, Michaelis-Menten fit; type: biochemical, Shigella flexneri; settings: ATP co-substrate, 2 mM MgCl2, 50 mM buffer, optimal conditions (optimum pH 9.0, 55 °C), apparent Km
purified protein [3] = substrate: CC(C)=CCO; experiment: purified protein; settings: ATP co-substrate, 2 mM MgCl2, 50 mM buffer, optimal conditions (optimum pH 7.5, 30 °C), apparent Km, 30.0 °C
[4] = substrate: CC(C)=CCO; experiment: ADP formation, ADP colorimetric/fluorometric assay kit, Michaelis-Menten fit; type: biochemical, Escherichia coli; settings: ATP co-substrate, 2 mM MgCl2, 50 mM buffer, optimal conditions (optimum pH 5.5, 50 °C), apparent Km

B1: MtIPK (Methanolobus tindarius isopentenyl phosphate kinase) (Methanolobus tindarius DSM 2278) (protein)
chain: MDNNNITILKIGGSVITDKSADDGTARLSEIERIAAEISGFEGKLIIVHGAGSFGHPQVKRFGLTGKFDHEGSIITHMSVRKLNTMVVETLNSAGINALPVHPMACAISSNSRIKSMFREQIEEMLANGFVPVLHGDMVMDTDLGTSVLSGDQIVPYLAIQMKASRIGIGSAEEGVLDDKGGVIPLINNENFDEIKAYLSGSANTDVTGGMLGKVLELLELSEQSNSTSYIFNAGNTGNISDFLSGKNIGTAIGAGTI
Km (purified protein [1]; optimal conditions (optimum pH 7.5, 35 °C), 35.0 °C): 65 µM

B2: MthIPK (Methanothermobacter thermautotrophicus isopentenyl phosphate kinase) (Methanothermobacter thermautotrophicus str. Delta H) (protein)
chain: MIILKLGGSVITRKDSEEPAIDRDNLERIASEIGNASPSSLMIVHGAGSFGHPFAGEYRIGSEIENEEDLRRRRFGFALTQNWVKKLNSHVCDALLAEGIPAVSMQPSAFIRAHAGRISHADISLIRSYLEEGMVPVVYGDVVLDSDRRLKFSVISGDQLINHFSLRLMPERVILGTDVDGVYTRNPKKHPDARLLDVIGSLDDLESLDGTLNTDVTGGMVGKIRELLLLAEKGVESEIINAAVPGNIERALLGEEVRGTRITGKH
Km (purified protein [1]; optimal conditions (optimum pH 7.5, 30 °C), 30.0 °C): 116 µM

B3: SfPK (Shigella flexneri promiscuous kinase) (Shigella flexneri) (protein)
chain: SIPPGNDVTTKPDLYYLTNDNAIDSLALLPPPPQIGSIAFLNDQAMYEKGRLLRNTERGKLAAEDANLSSGGVANVFSAAFGSPITAKDSPELHKLLTNMIEDAGDLATRSAKEYYMRIRPFAFYGVSTCNTKEQDTLSRNGSYPSGHTSIGWATALVLSEINPARQDTILKRGYELGDSRVICGYHWQSDVDAARIVGSAIVATLHSNPVFQAQLQKAKDEFANNQKK
Km [2]: 16 µM

B4: ScPK (Saccharomyces cerevisiae promiscuous kinase) (Saccharomyces cerevisiae S288C) (protein)
chain: MVQESRPGSVRSYSVGYQARSRSSSQRRHSLTRQRSSQRLIRTISIESDVSNITDDDDLRAVNEGVAGVQLDVSETANKGPRRASATDVTDSLGSTSSEYIEIPFVKETLDASLPSDYLKQDILNLIQSLKISKWYNNKKIQPVAQDMNLVKISGAMTNAIFKVEYPKLPSLLLRIYGPNIDNIIDREYELQILARLSLKNIGPSLYGCFVNGRFEQFLENSKTLTKDDIRNWKNSQRIARRMKELHVGVPLLSSERKNGSACWQKINQWLRTIEKVDQWVGDPKNIENSLLCENWSKFMDIVDRYHKWLISQEQGIEQVNKNLIFCHNDAQYGNLLFTAPVMNTPSLYTAPSSTSLTSQSSSLFPSSSNVIVDDIINPPKQEQSQDSKLVVIDFEYAGANPAAYDLANHLSEWMYDYNNAKAPHQCHADRYPDKEQVLNFLYSYVSHLRGGAKEPIDEEVQRLYKSIIQWRPTVQLFWSLWAILQSGKLEKKEASTAITREEIGPNGKKYIIKTEPESPEEDFVENDDEPEAGVSIDTFDYMAYGRDKIAVFWGDLIGLGIITEEECKNFSSFKFLDTSYL
Km (purified protein [3]): 1250 µM

B5: EcPK (Escherichia coli promiscuous kinase) (Escherichia coli K-12) (protein)
chain: MQVDLLGSAQSAHALHLFHQHSPLVHCMTNDVVQTFTANTLLALGASPAMVIETEEASQFAAIASALLINVGTLTQPRAQAMRAAVEQAKSSQTPWTLDPVAVGALDYRRHFCHELLSFKPAAIRGNASEIMALAGIANGGRGVDTTDAAANAIPAAQTLARETGAIVVVTGEMDYVTDGHRIIGIHGGDPLMTKVVGTGCALSAVVAACCALPGDTLENVASACHWMKQAGERAVARSEGPGSFVPHFLDALWQLTQEVQA
Km [4]: 930 µM
